Publication PMC8438204 (2021)

B1: HigA2 (protein)
chain: MSNRDLFAELSSALVEAKQHSEGKLTLKTHHVNDVGELNISPDEIVSIREQFNMSRGVFARLLHTSSRTLENWEQGRSVPNGQAVTLLKLVQRHPETLSHIAEL
B2: HigB2 (protein)
chain: MKSVFVESTIFEKYRDEYLSDEEYRLFQAELMLNPKLGDVIQGTGGLRKIRVASKGKGKRGGSRIIYYFLDEKRRFYLLTIYGKNEMSDLNANQRKQLMAFMEAWRNEQS

What was measured:
Experiment in all cases: competition
[1] = target: B2
[2] = target: HigA2 3-23 peptide 3-23 (Vibrio cholerae, UniProt Q9KMA5)
[3] = target: HigA2 3-33 peptide 3-33 (Vibrio cholerae, UniProt Q9KMA5)

With B1 the Kd [1] was 0.016 nM.

B2 showed a Kd [2] of 0.003 nM and a Kd [3] of ~0.127 nM.
